According to paper PMC10761869 (Nature Communications, 2024):

Legend:
[1] = target: Ssa1^TMR, TMR-labeled Ssa1(D430C) (yeast) (UniProt P10591); assay: FRET or BRET; 20 nM Bos1^BFL with 500 nM Ssa1^TMR, with or without 500 nM Ydj1, 5 min; excitation 485 nm; chased with cpSRP43 or a five-fold excess of unlabeled Ssa1
[2] = target: (Sgt2-C258)XL2, BMH-crosslinked Sgt2-C258 dimer (UniProt Q12118); assay: cross-linking; Bos1^Bpa translated with 35S-methionine in S30 lysate in the presence of Sgt2 or Sgt2-C258; complexes purified via His6 on Sgt2, treated with 1 mM BMH; UV crosslinking, SDS-PAGE, autoradiography; time courses after adding 15–20 µM CaM (1 mM Ca(OAc)2) or 0.75 µM Get3 with 2 mM ATP, with or without 0.75 µM Get4/5
[3] = target: His6-Sgt2 (wildtype Sgt2) (UniProt Q12118); assay: as above
[4] = target: Sgt2^BFL (His6-Sgt2-LPATGG labelled with BODIPY-FL at the C-terminus); assay: FRET or BRET; 50–150 nM purified Sgt2^BFL-TA^CM complex in GET buffer chased with 14–28 µM cpSRP43; recovery of donor fluorescence (excitation 360 nm, emission 460 nm); TA dissociation
[5] = target: Sgt2^BFL (His6-Sgt2-LPATGG labelled with BODIPY-FL at the C-terminus); assay: as above; remark: listed apart in the source
[6] = target: Sgt2^BFL (His6-Sgt2-LPATGG labelled with BODIPY-FL at the C-terminus); assay: FRET or BRET; 50–150 nM purified Sgt2^BFL-Bos1^CM complex in GET buffer chased with 2.5–30 µM CaM or with unlabeled Sgt2; recovery of donor fluorescence; intrinsic koff by extrapolation of the CaM concentration dependence to the Y-axis
[7] = target: His6-Sgt2-G258C, not crosslinked (UniProt Q12118); assay: cross-linking; purified Sgt2-C258-TA^Bpa complex incubated with 1 mM BMH at RT, quenched with 10 mM DTT; anti-His immunoblot
[8] = target: His6-Sgt2-G258C, not crosslinked (UniProt Q12118); assay: cross-linking; intradimer crosslink of Sgt2 single cysteine variants with the thiol-specific homo-bifunctional crosslinker bismaleimidohexane (BMH)
[9] = target: Bos1^Bpa, in vitro translated (Strep3-tagged, 35S-methionine); assay: pull-down + cross-linking; Bos1^Bpa translated in S30 extract in the presence of 2 µM His6-Sgt2 or Sgt2ΔN; pulldown on the strep3-tagged TA; UV crosslinking, autoradiography
Ssa1 (tagless) = target: T1, Ssa1 (tagless) (yeast, UniProt P10591 1-642); assay: pull-down; TA (0.3 µM) loaded on 3 µM Ssa1 with 2 mM ATP, with or without 3 µM Ydj1, then 0.6 µM His6-Sgt2; Talon resin, GET buffer (150 mM KOAc) with 5 mM imidazole wash; conditions: both partners purified
T1 construct: Ssa1, the major cytosolic Hsp70 in yeast; also called Hsp70; unlabeled Ssa1; source: recombinant His6-SUMO fusion, purified (Ni Sepharose, SUMO protease, MonoQ)

Ssa1 = target: T2, Ssa1 (yeast, UniProt P10591 1-642); assay: pull-down; 0.6 µM His6-Sgt2 added for 1 min to a preformed Ssa1-TA complex (0.3 µM TA, 3 µM Ssa1, 2 mM ATP, with or without 3 µM Ydj1) in GET buffer; captured on Talon resin at 4 °C, washed with GET buffer + 5 mM imidazole, eluted with 300 mM imidazole; silver stain and anti-Strep western blot; conditions: both partners purified
T2 construct: Ssa1, the major cytosolic Hsp70 of yeast; also called Hsp70; source: recombinant His6-SUMO fusion, purified (Ni Sepharose, SUMO protease, MonoQ)

[10] = target: T3, His6-Sgt2 (wildtype Sgt2), Q12118
T3 chain: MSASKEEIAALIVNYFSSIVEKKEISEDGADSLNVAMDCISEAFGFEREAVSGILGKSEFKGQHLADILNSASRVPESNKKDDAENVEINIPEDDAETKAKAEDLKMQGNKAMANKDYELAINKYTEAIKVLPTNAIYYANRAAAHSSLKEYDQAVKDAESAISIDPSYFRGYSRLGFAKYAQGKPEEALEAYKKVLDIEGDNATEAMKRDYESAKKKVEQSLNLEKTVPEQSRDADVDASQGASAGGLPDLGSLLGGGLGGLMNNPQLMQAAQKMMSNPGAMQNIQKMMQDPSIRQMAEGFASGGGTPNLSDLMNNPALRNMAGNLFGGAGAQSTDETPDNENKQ

T1 sequence (P10591 whole entry, the tested form may be a part): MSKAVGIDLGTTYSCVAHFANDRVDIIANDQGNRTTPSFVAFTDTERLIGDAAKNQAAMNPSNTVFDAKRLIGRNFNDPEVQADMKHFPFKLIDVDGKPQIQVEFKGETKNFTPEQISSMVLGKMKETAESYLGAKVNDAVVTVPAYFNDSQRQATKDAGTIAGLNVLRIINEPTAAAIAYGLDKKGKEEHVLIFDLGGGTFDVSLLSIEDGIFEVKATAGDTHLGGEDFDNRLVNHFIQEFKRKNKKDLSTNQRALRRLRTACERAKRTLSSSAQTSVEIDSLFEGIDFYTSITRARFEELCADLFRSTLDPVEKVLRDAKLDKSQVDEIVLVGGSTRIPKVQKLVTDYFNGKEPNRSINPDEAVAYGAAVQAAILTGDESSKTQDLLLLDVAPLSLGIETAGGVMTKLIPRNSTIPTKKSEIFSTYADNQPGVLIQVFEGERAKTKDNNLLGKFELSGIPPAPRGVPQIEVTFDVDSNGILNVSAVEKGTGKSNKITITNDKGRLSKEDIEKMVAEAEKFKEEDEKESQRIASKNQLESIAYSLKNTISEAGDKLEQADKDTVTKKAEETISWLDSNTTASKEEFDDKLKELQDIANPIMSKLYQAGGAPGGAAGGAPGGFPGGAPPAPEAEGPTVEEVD
T2 sequence (P10591 whole entry, the tested form may be a part): as above

Bos1^BFL (BFL-labeled Bos1)
koff, slow phase (~50% of the fluorescence change) [1]: 0.0005 s⁻¹

Bos1^Bpa, in vitro translated (Strep3-tagged, 35S-methionine)
rate constant of loss of the TA crosslink to (Sgt2-C258)XL2 on transfer to Get3 with Get4/5 [2]: 3.5 min⁻¹
apparent rate constant of TA loss from Sgt2 to CaM (20 µM CaM) [3]: 0.78 min⁻¹

Bos1^CM (Strep-SUMO-Bos1 labelled with coumarin)
koff [4]: 0.000283 to 0.000317 s⁻¹
koff [5]: 0.0003 s⁻¹
apparent rate constant of Bos1 release from Sgt2 with 30 µM CaM [6]: 0.91 min⁻¹
koff [6]: 0.0003 s⁻¹

His6-Sgt2-G258C, not crosslinked (from UniProt Q12118 1-346) (natural protein)
percent crosslinked by BMH (intradimer, in the complex with TA) [7]: 50%
BMH crosslinking efficiency (intradimer) [8]: 46%

B1: His6-Sgt2ΔN (residues 96–346) (domain or fragment)
chain: AETKAKAEDLKMQGNKAMANKDYELAINKYTEAIKVLPTNAIYYANRAAAHSSLKEYDQAVKDAESAISIDPSYFRGYSRLGFAKYAQGKPEEALEAYKKVLDIEGDNATEAMKRDYESAKKKVEQSLNLEKTVPEQSRDADVDASQGASAGGLPDLGSLLGGGLGGLMNNPQLMQAAQKMMSNPGAMQNIQKMMQDPSIRQMAEGFASGGGTPNLSDLMNNPALRNMAGNLFGGAGAQSTDETPDNENKQ
percent of Bos1^Bpa crosslinked [9]: 6%

B2: His6-Sgt2 (wildtype Sgt2) (natural protein, UniProt Q12118 1-346, looked up)
chain: T3 chain
notes: Sgt2, cochaperone of the GET pathway; The functional rows were measured with Sgt2 doubly labelled with ATTO550/ATTO647N at the C-terminus (His6-Sgt2-LPATGG ligated to GGGC-dye by sortase A); also called Sgt2-WT; unlabeled Sgt2; source: cells lysed with BugBuster
percent of Bos1^Bpa crosslinked [9]: > 43%
binding result (Ssa1 (tagless)): binds

B3: His6-tagged wildtype Sgt2 (natural protein, S. cerevisiae (printed as ScSgt2), UniProt Q12118 1-346, looked up)
chain: T3 chain
notes: Sgt2 (ScSgt2); also called His6-Sgt2; His-Sgt2-WT
binding result (Ssa1): binds

SEQTITSINKRVFKDKLVFWIALILLIIGIYYVLKWLR (modifications not checked) [Strep-SUMO-Bos1 (model TA substrate Bos1), unlabelled]
equilibrium of Sgt2 closing (K closing; µs-ALEX smFRET of doubly labelled Sgt2^ATTO550/ATTO647N, mpH2MM) in the purified Sgt2-TA complex; apo-Sgt2 0.221 [10]: 0.597
